Test results taken from article PMC8060857.

Target: HR-C1 peptide (SARS-CoV (Urbani strain)) (UniProt P59594)
Test: SDS-PAGE of samples not heated

In the case of “HR-C1 peptide (from UniProt P59594 1147-1185)”, the stoichiometry N is reported as 3.
